According to patent publication US10175244B2, “Dominant negative HSP110 mutant and its use in prognosing and treating cancers” (INSERM (INSTITUT NATIONAL DE LA SANTÉ ET DE LA RECHERCHE …, priority 2011, dated 2019):

B1: TRAIL: cell death factor, Tumor necrosis factor-related-apoptosis-inducing ligand, recombinant (protein, UniProt P50591 1-281, looked up)
Tumor necrosis factor ligand …: MAMMEVQGGPSLGQTCVLIVIFTVLLQSLCVAVTYVYFTNELKQMQDKYSKSGIACFLKEDDSYWDPNDEESMNSPCWQVKWQLRQLVRKMILRTSEETISTVQEKQQNISPLVRERGPQRVAAHITGTRGRSNTLSSPNSKNEKALGRKINSWESSRSGHSFLSNLHLRNGELVIHEKGFYYIYSQTYFRFQEEIKENTKNDKQMVQYIYKYTSYPDPILLMKSARNSCWSKDAEYGLYSIYQGGIFELKENDRIFVSVTNEHLIDMDHEASFFGAFLVG
modifications: His tag
notes: cell death factor, Tumor necrosis factor-related-apoptosis-inducing ligand, recombinant
B2: HSP110delE9: truncated HSP110 protein (SEQ ID NO: 1) from mRNA lacking exon 9, devoid of the substrate binding domain (protein, listed as Homo sapiens)
chain: MSVVGLDVGSQSCYIAVARAGGIETIANEFSDRCTPSVISFGSKNRTIGVAAKNQQITHANNTVSNFKRFHGRAFNDPFIQKEKENLSYDLVPLKNGGVGIKVMYMGEEHLFSVEQITAMLLTKLKETAENSLKKPVTDCVISVPSFFTDAERRSVLDAAQIVGLNCLRLMNDMTAVALNYGIYKQDLPSLDEKPRIVVFVDMGHSAFQVSACAFNKGKLKVLGTAFDPFLGGKNFDEKLVEHFCAEFKTKYKLDAKSKIRALLRLYQECEKLKKLMSSNSTDLPLNIECFMNDKDVSGKMNRSQFEELCAELLQKIEVPLYSLLEQTHLKVEDVSAVEIVGGATRIPAVKERIAKFFGKDISTTLNADEAVARGCALQC
B3: HSP110wt: wild-type heat-shock 110 kDa protein, SEQ ID NO: 2 (protein, listed as Homo sapiens)
chain: MSVVGLDVGSQSCYIAVARAGGIETIANEFSDRCTPSVISFGSKNRTIGVAAKNQQITHANNTVSNFKRFHGRAFNDPFIQKEKENLSYDLVPLKNGGVGIKVMYMGEEHLFSVEQITAMLLTKLKETAENSLKKPVTDCVISVPSFFTDAERRSVLDAAQIVGLNCLRLMNDMTAVALNYGIYKQDLPSLDEKPRIVVFVDMGHSAFQVSACAFNKGKLKVLGTAFDPFLGGKNFDEKLVEHFCAEFKTKYKLDAKSKIRALLRLYQECEKLKKLMSSNSTDLPLNIECFMNDKDVSGKMNRSQFEELCAELLQKIEVPLYSLLEQTHLKVEDVSAVEIVGGATRIPAVKERIAKFFGKDISTTLNADEAVARGCALQCAILSPAFKVREFSVTDAVPFPISLIWNHDSEDTEGVHEVFSRNHAAPFSKVLTFLRRGPFELEAFYSDPQGVPYPEAKIGRFVVQNVSAQKDGEKSRVKVKVRVNTHGIFTISTASMVEKVPTEENEMSSEADMECLNQRPPENPDTDKNVQQDNSEAGTQPQVQTDAQQTSQSPPSPELTSEENKIPDADKANEKKVDQPPEAKKPKIKVVNVELPIEANLVWQLGKDLLNMYIETEGKMIMQDKLEKERNDAKNAVEEYVYEFRDKLCGPYEKFICEQDHQNFLRLLTETEDWLYEEGEDQAKQAYVDKLEELMKIGTPVKVRFQEAEERPKMFEELGQRLQHYAKIAADFRNKDEKYNHIDESEMKKVEKSVNEVMEWMNNVMNAQAKKSLDQDPVVRAQEIKTKIKELNNTCEPVVTQPKPKIESPKLERTPNGPNIDKKEEDLEDKNNFGAEPPHQNGECYPNEKNSVNMDLD

How the values were obtained:
[1] = test system: HCT116 cells; assay: Cell death analysis, TRAIL-induced apoptosis in transfected cells; assay type: cell-based, human; conditions: for protective (anti-apoptotic) effect against TRAIL-induced apoptosis: transfected HCT116 cells
Procedure: FIG. 11 depicts the effect of HSP110delE9 on apoptosis. HCT116 cells transfected with GFP-tagged HSP110, HSP110delE9 or an empty vector (GFP) were treated with recombinant TRAIL ligand (5 h) at the indicated doses. Apoptosis was measured by FACS analysis of caspase 3 activity.
FIG. 12 depicts the effect of increasing dose of HSP110delE9 on apoptosis. HCT116 cells transfected with GFP-tagged HSP110 and increased doses of HSP110delE9 or an empty vector (GFP) were treated with recombinant TRAIL ligand (60 ng/ml, 5 h) and the percentage of apoptosis was determined by DAPI staining (chromatin condensation).
(§1) Adherent cells were plated onto 12-well culture plates (1.5×10^5 cells/well) in complete medium. When indicated, cells were treated with TRAIL (150 ng/ml or 500 ng/ml) for 4 hours and cell death was measured by Hoechst 33342 staining (Sigma-Aldrich). Following treatment for 48 h with oxaliplatin (OxaPt, 20 and 40 μM), apoptotic cells were detected by Apo2.7 staining. Briefly, cells were harvested, washed in PBS and permeabilized with digitonin (100 mg/ml, 10 min at 4° C.). Cells were incubated with anti-Apo2.7 antibody and apoptotic cells were analyzed by flow cytometry using a LSR2 flow cytometer (Becton Dickinson, Franklin Lakes, N.J.).
(§2) A number of studies have previously described the anti-apoptotic role of HSP110. We therefore investigated the effect on apoptosis of the HSP110 truncation due to exon 9 skipping. HCT116 cells were transfected with HSP110wt or HSP110delE9 and apoptosis was triggered using the cell death factor, TRAIL (Tumor necrosis factor-related-apoptosis-inducing ligand).

[2] = molecular target: T1, HSP27 (Homo sapiens, UniProt P04792); assay: Immunoprecipitation and Western-blotting, association with HSP27; assay type: binding; conditions: HCT116 cells, immunoprecipitation
T1 construct: HA; expressed in transfected cells; host or cells: HCT116
Procedure: (§3) Transfected cells were first lysed in lysis buffer (50 mM Hepes (pH 7.6), 150 mM NaCl, 5 mM EDTA and 0.1% NP40) followed by immunoprecipitation using GFP-tag antibody. Immunoprecipitates were separated in a 10% SDS-polyacrylamide gel and then transferred to PVDF membranes using a wet transfer apparatus (BioRad, Hercules, Califomia, USA). Membranes were first probed ovemight using primary antibodies: HA-tag antibody was from Covance (Eurogentec, Angers, France), 14-3-3 from Santa-Cruz (TebuBio, Le Perray en Yvelines, France) and GFP-tag antibody from Millipore (Molsheim, France).
(§4) The skipping of HSP110 exon 9 is frameshift and therefore generates a premature terminaison codon in exon 10 of the HSP110delE9 mRNA. HSP110delE9 is a truncated protein that contains the N-terminal ATP binding domain but is devoid of the substrate binding domain (FIG. 3). We performed several functional assays to better understand the role of increased expression of HSP110delE9 in MSI CRC cell lines. Chaperone activity was first studied using a protein thermolability assay that measures the in vitro ability of HSP110 to block protein aggregation induced by a heat shock using Murine Embryonic Fibroblasts (MEF).

[3] = test system: MSI (HCT116, LoVo) and MSS (SW480) CRC cell lines; assay: Cell death analysis, sensitivity of transfected CRC cell lines to anticancer agents; assay type: cell-based, human
Procedure: FIG. 13 depicts the pro-apoptotic effect of HSP110delE9 on tumor cells treated with a chemotherapeutic agent. HCT116 (MSI) or SW480 (MSS) cells were transfected with HSP110wt (1.5 μg) and co-transfected with two different doses (0.5 and 1 μg) of either GFP-empty vector or HSP110delE9. After treatment with oxaliplatin (Oxa, 40 μM, 48 h), apoptosis was assessed by FACS analysis. *P<0.05.
as §1, §2

[4] = molecular target: T2, HSP110wt (Homo sapiens, UniProt Q92598); assay: Immunoprecipitation and Western-blotting, association with HSP110wt; assay type: binding; conditions: HCT116 cells, immunoprecipitation
T2 construct: host or cells: HCT116
Procedure: FIG. 10 depicts the analysis of HSP110delE9 to wild-type HSP110. Cell lysates from HCT116 transfected with GFP-tagged HSP110 and/or HSP110delE9 were subjected to immunoprecipitation using HSP110 that recognizes the C-terminus of HSP110. After migration, membranes were immunoblotted with GFP antibody. Inputs: protein level in total cell lysates.
as §3
as §4, with “Chaperone activity was first studied using a protein thermolability assay that measures the in vitro ability of HSP110 to block protein aggregation induced by a heat shock using Murine Embryonic Fibroblasts (MEF).” left out

[5] = test system: protein aggregation induced by a heat shock; assay: HSP110 chaperone activity, protein thermolability assay; assay type: biochemical, mouse; conditions: for anti-aggregation chaperone activity: protein extracts of transfected MEF heated at 55° C. for 1 h
Procedure: FIG. 9 depicts the effect of HSP110delE9 expression on protein aggregation. Protein extracts from MEF HSF1^+/+ cells transfected with HSP70, HSP110 and/or HSP110delE9 were heated at 55° C. for 1 h. The ratio between the initial amount of soluble protein before and after heat shock allowed to the quantification of protein aggregation. Each bar is the mean value of 4 different experiments. *P<0.05.
HSP110 chaperone activity was evaluated using a protein thermolability assay. Total protein (2 mg/mL) from HSF1^−/− MEFs that had been transfected with HSP70 (positive control), HSP27 (negative control), HSP110 or Mutant HSP110 (Dc Assay Kits, Bio-Rad, France) was heated at 55° C. for 1 hour. After centrifugation to eliminate aggregated proteins, the remaining native proteins in the supernatant were quantified. The ratio between the initial amount of soluble protein and that obtained after heating allowed for the quantification of protein aggregation.
as §4

[6] = molecular target: T3, HSP70 (Homo sapiens, UniProt P0DMV8); assay: Immunoprecipitation and Western-blotting, association with HSP70; assay type: binding; conditions: HCT116 cells, immunoprecipitation
T3 construct: HA; expressed in transfected cells; host or cells: HCT116
Procedure: as §3, §4

[7] = test system: MSI colon tumor cell lines; assay: Apoptosis on re-expression of HSP110delE9 (NMD experiments); assay type: cell-based; conditions: data not shown
Description: The HSP110delE9 transcript contains a premature stop codon (PTC). Consequently, it is partially degraded by the NMD system in the tumor cells. […] Synthesis of chemical or biological compounds mimicking the HSP110delE9 activity in tumor cells, in particular mimicking its anti-apoptotic effect may have a major therapeutical interest in the treatment of CRCs. In the same way, the use of compounds susceptible to promote the HSP110delE9 expression in the tumor cells would be of great interest. […] Different pharmacological inhibitors of NMD are now available. They can be used to reproduce these experiments, both in vitro in different cell models and in animal models (nude mice xenografted with MSI CRC in first-line).

[8] = test system: HSP90; assay: Immunoprecipitation and Western-blotting, association with HSP90; assay type: binding; conditions: HCT116 cells, immunoprecipitation
Procedure: as §3, §4

[9] = test system: denatured protein substrates; conditions: compared to HSC70 and HSP70; cited from earlier work

T1 sequence (P04792 whole entry): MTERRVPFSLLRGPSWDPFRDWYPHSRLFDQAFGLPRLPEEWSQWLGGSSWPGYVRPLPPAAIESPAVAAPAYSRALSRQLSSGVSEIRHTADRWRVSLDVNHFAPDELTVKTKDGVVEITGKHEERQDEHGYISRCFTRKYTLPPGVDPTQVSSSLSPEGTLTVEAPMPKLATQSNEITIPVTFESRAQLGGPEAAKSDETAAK
T3 sequence (P0DMV8 whole entry): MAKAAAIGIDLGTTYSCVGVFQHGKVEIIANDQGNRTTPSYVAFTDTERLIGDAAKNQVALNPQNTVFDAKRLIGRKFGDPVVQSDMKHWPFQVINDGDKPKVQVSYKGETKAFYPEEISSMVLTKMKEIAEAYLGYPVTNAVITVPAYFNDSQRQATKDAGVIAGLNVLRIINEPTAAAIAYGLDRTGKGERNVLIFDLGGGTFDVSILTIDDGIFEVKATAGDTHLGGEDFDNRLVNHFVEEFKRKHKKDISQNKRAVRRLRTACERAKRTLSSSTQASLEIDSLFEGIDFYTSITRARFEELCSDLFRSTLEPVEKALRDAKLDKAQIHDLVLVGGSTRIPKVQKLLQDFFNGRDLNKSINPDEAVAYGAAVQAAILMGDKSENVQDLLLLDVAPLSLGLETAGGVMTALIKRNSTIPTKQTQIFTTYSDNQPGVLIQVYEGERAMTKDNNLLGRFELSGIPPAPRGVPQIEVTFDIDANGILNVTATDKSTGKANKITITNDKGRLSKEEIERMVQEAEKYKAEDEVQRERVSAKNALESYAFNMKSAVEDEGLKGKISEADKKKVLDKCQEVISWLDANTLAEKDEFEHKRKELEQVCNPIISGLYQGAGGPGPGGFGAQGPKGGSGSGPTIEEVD

Molecule | induction of apoptosis ([1]; HCT116 cells treated with TRAIL) | association with HSP27 [2] | sensitization of colon cancer cells to chemotherapeutic agents ([3]; 5-fluorouracil and oxaliplatin, in vitro) | sensitivity of CRC cell lines to oxaliplatin ([3]; over-expression in HCT116, LoVo, SW480) | association with HSP110wt [4] | effect on anti-aggregation activity of HSP110wt ([5]; HSP110delE9 added at the same time as HSP110wt) | anti-aggregation chaperone activity [5] | association with HSP70 [6] | apoptosis on re-expression [7] | effect on anti-apoptotic function of HSP110wt ([1]; HCT116 co-transfected with HSP110wt and increasing doses of HSP110delE9, TRAIL) | protective (anti-apoptotic) effect against TRAIL-induced apoptosis [1] | association with HSP90 [8] | efficiency at binding and stabilizing denatured protein substrates [9]
B1 | induced dose dependent apoptosis |  |  |  |  |  |  |  |  |  |  |  | 
B2 |  | lost the ability to associate with HSP70 and HSP27 | caused the sensitization of colon cancer cells | increased their sensitivity to anticancer agents such as oxaliplatin | associated strongly with HSP110wt | anti-aggregation activity of HSP110wt was abrogated | lost this chaperone activity | lost the ability to associate with HSP70 and HSP27 | causes apoptosis of MSI colon tumor cell lines | able to block its anti-apoptotic function in a dose-dependent manner | lacked the protective properties of HSP110wt |  | 
B3 |  | efficiently interacted |  |  |  |  | anti-aggregation activity comparable to other HSPs such as HSP70 | efficiently interacted with HSP70 |  |  | exerted a protective effect | not with HSP90 | approximately four-fold more efficient
